Each block holds one binder with its values, some of them ahead of it. Ends that are not written are not given here. * marks the point of attachment. FITC = O=C1OC2(c3ccc(O)cc3Oc3cc(O)ccc32)c2ccc(NC(=S)*)cc21; Farnesyl = CC(C)=CCC/C(C)=C/CC/C(C)=C/C*; Far = not defined here
B1: phosphodiesterase 6 delta subunit (PDE6δ), N-terminal histidine-tagged (natural protein)
chain: MSAKDERAREILRGFKLNWMNLRDAETGKILWQGTEDLSVPGVEHEARVPKKILKCKAVSRELNFSSTEQMEKFRLEQKVYFKGQCLEEWFFEFGFVIPNSTNTWQSLIEAAPESQMMPASVLTGNVIIETKFFDDDLLVSTSRVRLFYV
notes: PDE6δ, the delta subunit of phosphodiesterase 6; the PDE6δ of PDB 3T5G was the search model for the structure solved here (5F2U); also called PrBP/PDE6δ; source: E. coli BL21-CodonPlus(DE3)-RIL, purified (Ni-NTA, gel filtration)
B2: full-length Arl2, C-terminal histidine-tagged, bound to GppNHp or mantGppNHp (natural protein, UniProt Q9D0J4 1-184, looked up)
chain: MGLLTILKKMKQKERELRLLMLGLDNAGKTTILKKFNGEDVDTISPTLGFNIKTLEHRGFKLNIWDVGGQKSLRSYWRNYFESTDGLIWVVDSADRQRMQDCQRELQSLLVEERLAGATLLIFANKQDLPGALSCNAIQEALELDSIRSHHWRIQGCSAVTGEDLLPGIDWLLDDISSRVFTAD
notes: Loaded with GppNHp (release assays) or mantGppNHp (kinetics with PDE6δ); Species surmised as mouse from earlier work of the same laboratory; the human protein is P36404; also called Arl2^fl; Arl2·GppNHp; source: E. coli BL21-CodonPlus(DE3)-RIL, purified (Ni-NTA, gel filtration)
B4: TAMRA-labelled farnesylated and carboxy-methylated C-terminal peptide of INPP5E (residues 637-644) (peptide)
peptide: SQNSSTIC(Farnesyl)-OMe
modifications: also: TAMRA label, position not given here
notes: C-terminal peptide of inositol polyphosphate 5'-phosphatase E (INPP5E), printed as residues 637-644 with the farnesylated Cys644; also called INPP5E peptide; TAMRA-labelled INPP5E peptide; source: synthetic peptide, bought: JPT

What was measured:
Conditions in all cases: both partners purified
[1] = target: B4; assay: fluorescence polarisation; stopped flow; complex of 1 μM PDE6δ with 0.2 μM labelled peptide mixed with 100-fold excess of unlabelled peptide and 10 μM Arl3·GppNHp; 20 °C
[2] = target: T1, N-terminally truncated Arl3 (aa 18-177), bound to GppNHp or mantGppNHp (UniProt Q9WUL7 18-177); assay: fluorescence polarisation; stopped flow; kon: 0.2 μM mantGppNHp-loaded Arl protein with increasing PDE6δ; koff: 2 μM PDE6δ with 0.2 μM mantGppNHp-loaded Arl protein mixed with 200-fold excess of unlabelled Arl protein; Kd=koff/kon; 20 °C
T1 construct: Arl3 residues 18-177, without the N-terminal helix; Species surmised as mouse from earlier work of the same laboratory; also called Arl3^ΔN; source: E. coli BL21-CodonPlus(DE3)-RIL, purified (GSH column, tag cleaved, gel filtration); not shown: GST, N-terminal, cleaved

[3] = target: T2, N-terminally truncated Arl2 (aa 17-178), bound to mantGppNHp (UniProt Q9D0J4 17-178); assay: as above
T2 construct: Arl2 residues 17-178; Species surmised as mouse from earlier work of the same laboratory; also called Arl2^ΔN; source: E. coli BL21-CodonPlus(DE3)-RIL, purified (GSH column, tag cleaved, gel filtration); not shown: GST, N-terminal, cleaved

[4] = target: T3, full-length Arl3, C-terminal histidine-tagged, bound to GppNHp or mantGppNHp (UniProt Q9WUL7 1-182); assay: as above
T3 construct: Loaded with the non-hydrolysable GTP analogue GppNHp (release assays) or mantGppNHp (kinetics with PDE6δ); Species surmised as mouse from earlier work of the same laboratory; the human protein is P36405; also called Arl3^fl; Arl3·GppNHp; source: E. coli BL21-CodonPlus(DE3)-RIL, purified (Ni-NTA, gel filtration)

[5] = target: B2; assay: as above
[6] = target: B1; assay: as above
[7] = target: B1; assay: fluorescence polarisation; competition: complex of 0.5 μM FITC-labelled Rheb peptide and 1 μM PDE6δ titrated with unlabelled mutant peptide; fitted with a competition model; 20 °C
[8] = target: B1; assay: fluorescence polarisation; 0.01 μM TAMRA-labelled INPP5E peptide or 0.5 μM FITC-labelled Rheb peptide titrated with increasing PDE6δ; 20 °C; 25 mM Tris-HCl pH 7.5, 50 mM NaCl, 3 mM DTE; quadratic fit
[9] = target: B1; assay: fluorescence polarisation; stopped flow; complex of 1 μM PDE6δ with 0.2 μM labelled peptide mixed with 100-fold excess of unlabelled peptide, no Arl protein; 20 °C

Binder: B1
fold acceleration of koff by Arl3·GppNHp against no Arl [1]: ~10000 fold | Kd [2]: 217 nM | Kd [3]: 316 nM | Kd [4]: 5.8 nM | Kd [5]: 149 nM

Binder: B2
fold difference in koff against Arl2^ΔN [6]: 3 fold

Kd [7]: 12 nM
B3: Rheb(SI) peptide (K178S/S180I), farnesylated and carboxy-methylated (peptide)
peptide: SQGSSIC(Far)-OMe
modifications: reading uncertain
notes: C-terminal peptide of Rheb with the -1 and -3 residues swapped to those of INPP5E; Unlabelled; also called SQGSSIC(Far)-OMe; source: synthetic peptide, bought: CambridgePeptides

Binder: B4
Kd [8]: 3.7 nM

koff [9]: 0.95 s⁻¹ | Kd [8]: 445 nM
B5: FITC-labelled farnesylated and carboxy-methylated C-terminal peptide of Rheb (residues 175-181) (peptide)
peptide: {FITC}-SQGKSSC(Far)-OMe
modifications: reading uncertain
notes: also called Rheb peptide; Fluorescein-SQGKSSC(Far)-OMe; source: synthetic peptide, bought: JPT

From publication PMC5512577 (Nature Communications, 2016)
